Test results: patent publication US20200362050A1 (BLACK BELT THERAPEUTICS, published 2020)
Blank lines part the entries; values can stand above or below the molecule they belong to.

How the values were obtained:
[1] = molecular target: recombinant human CD38 his tagged (extracellular domain) (human) (UniProt P28907); assay: Forte Bio BLI, IgG on AHQ sensors
[2] = molecular target: T1, recombinant human CD38 his tagged (extracellular domain) (human, UniProt P28907 43-300); assay: SPR, Biacore 2000, antibody captured by anti-human antibody, rhCD38-his as analyte
T1 construct: Bought from Sino Biological; also called rhCD38; rhCD38-his; not shown: Histidine tag
T1 sequence: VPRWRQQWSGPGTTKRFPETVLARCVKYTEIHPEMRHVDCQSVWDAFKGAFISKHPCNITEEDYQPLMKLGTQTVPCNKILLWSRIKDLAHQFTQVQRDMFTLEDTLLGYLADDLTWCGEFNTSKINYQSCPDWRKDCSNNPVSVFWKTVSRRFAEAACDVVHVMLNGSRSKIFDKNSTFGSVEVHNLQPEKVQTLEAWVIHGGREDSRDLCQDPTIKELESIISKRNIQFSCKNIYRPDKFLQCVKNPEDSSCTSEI

[3] = molecular target: T2, human CD38 expressed on human cell lines (Daudi, Ramos, Raji, Jurkat) (human, UniProt P28907 1-300); assay: flow cytometry on Daudi cells, secondary rabbit anti-human Fcg F(ab')2, MFI against log antibody concentration
T2 construct: Endogenous CD38 of the cell lines; also called CD38 expressed on cell lines of human origin
T2 sequence: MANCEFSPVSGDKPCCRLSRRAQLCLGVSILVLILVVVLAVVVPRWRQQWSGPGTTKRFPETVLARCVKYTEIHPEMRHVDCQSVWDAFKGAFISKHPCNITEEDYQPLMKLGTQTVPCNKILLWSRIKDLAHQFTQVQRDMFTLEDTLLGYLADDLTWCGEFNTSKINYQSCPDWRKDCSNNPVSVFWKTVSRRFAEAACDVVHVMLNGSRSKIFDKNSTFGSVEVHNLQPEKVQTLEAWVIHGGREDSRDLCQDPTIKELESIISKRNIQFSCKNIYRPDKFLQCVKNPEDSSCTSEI
Procedure: (§1) Binding of anti-CD38 Antibodies to CD38-expressing cells: The candidate hits are evaluated by binding to lymphoblast like human cell lines, Ramos and Daudi. Binding to CD38 expressing human cell lines (Ramos and Daudi) was examined by staining test articles (anti-CD38 primary antibodies) with 20 μg/ml antibodies followed by semi-log dilution series (7-point) for 30 minutes on ice. This was followed by staining with a secondary antibody (rabbit anti-human Fcg F(ab′)2) concentration of 5 μg/ml for 30 minutes on ice. All samples were stained in triplicates. To minimize cross-linking induced cell death mediated by binding of the secondary antibody, cell lines were examined in staining cohorts of 4 test articles at a time. Live cells were gated using FSC vs SSC parameters by flow cytometry during sample acquisition. Mean fluorescence intensity (MFI) of stained cells were plotted on an XY chart, graphing MFI against the log of the concentration, and the data fit to a non-linear regression curve from which the EC50 is calculated.

[4] = molecular target: T2, human CD38 expressed on human cell …; assay: flow cytometry on Ramos cells, secondary rabbit anti-human Fcg F(ab')2, MFI against log antibody concentration
Procedure: as §1

[5] = molecular target: T1, recombinant human CD38 his tagged …; assay: BLI (Octet / Forte Bio), IgG against monovalent human CD38-HIS (affinity)
[6] = molecular target: T1, recombinant human CD38 his tagged …; assay: BLI (Octet), avidity format: rhCD38-his loaded on Ni-NTA sensor, antibody in solution
Procedure: Avidity binding measurements of anti-CD38 Antibodies: Ni-NTA sensors were equilibrated off-line in assay buffer for 30 minutes and then monitored on-line for 60 seconds for baseline establishment. […] Then the antibody was associated at different concentrations (as described in FIGS. 8) for 50 min. Afterwards they were transferred to assay buffer for 30 minutes for off-rate measurement. Kinetics data were fit using a 1:1 binding model in the data analysis software provided by ForteBio.

Kd [1]: 9 nM
Molecule: IB4, reference monoclonal agonistic mouse anti-human CD38 antibody

Kd [2]: 0.65 nM
EC50 (read off the curve) [3]: ~0.2 µg/mL
EC50 (read off the curve) [4]: ~0.4 µg/mL
B1: aCD38-a-309 human IgG1 (aCD38-a-309-hIgG1) (antibody, V domains shown)
VH: EVQLVESGGGLVKPGGSLRLSCAASGFTFSSYSMNWVRQAPGKGLEWVSSISSSSNYIYYADSVKGRFTISRDNAKNSLYLQMNSLRAEDTAVYYCAREPIYTSGWPFDIWGQGTMVIVSS
VL: EIVLTQSPATLSLSPGERATLSCRASQSVSSYLAWYQQKPGQAPRLLIYDASNRATGIPARFSGSGSGTDFTLTISSLEPEDFAVYYCQQHVNFPWTFGGGTKVEIK
notes: They are assigned here because the control is a human IgG1 isotype; not shown: human IgG1 heavy chain constant region, P01857; human kappa light chain constant region, P01834

Kd [5]: 32.9 nM
Kd [6]: 0.134 nM
B2: aCD38-a-309-IgG4 (antibody, V domains shown)
VH: EVQLVESGGGLVKPGGSLRLSCAASGFTFSSYSMNWVRQAPGKGLEWVSSISSSSNYIYYADSVKGRFTISRDNAKNSLYLQMNSLRAEDTAVYYCAREPIYTSGWPFDIWGQGTMVIVSS
VL: EIVLTQSPATLSLSPGERATLSCRASQSVSSYLAWYQQKPGQAPRLLIYDASNRATGIPARFSGSGSGTDFTLTISSLEPEDFAVYYCQQHVNFPWTFGGGTKVEIK
